Assay results taken from patent US20250101111A1.

Assays:
[1] = molecular target: human FcγRIIa-131R (human) (UniProt P12318); experiment: SPR (IBIS MX96), FcγR captured on sensor, full-length IgG1 titrated, pH 6.0, equilibrium 1:1 fit
[2] = molecular target: human FcγRIIa-131H (human) (UniProt P12318); experiment: as above
[3] = molecular target: human FcγRIIIa-158V (human) (UniProt P08637); experiment: as above
[4] = molecular target: human FcγRIIb (human) (UniProt P31994); experiment: as above
human FcγRIIb (human), sequence (P31994 43-217 limits assumed): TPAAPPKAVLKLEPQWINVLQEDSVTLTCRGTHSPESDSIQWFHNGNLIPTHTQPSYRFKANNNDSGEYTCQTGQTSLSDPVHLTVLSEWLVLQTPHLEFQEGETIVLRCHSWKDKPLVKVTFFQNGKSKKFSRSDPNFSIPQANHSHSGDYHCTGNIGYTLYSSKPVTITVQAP

[5] = molecular target: human FcγRIa (human) (UniProt P12314); experiment: as above
human FcγRIa (human), sequence (P12314 16-288 limits assumed): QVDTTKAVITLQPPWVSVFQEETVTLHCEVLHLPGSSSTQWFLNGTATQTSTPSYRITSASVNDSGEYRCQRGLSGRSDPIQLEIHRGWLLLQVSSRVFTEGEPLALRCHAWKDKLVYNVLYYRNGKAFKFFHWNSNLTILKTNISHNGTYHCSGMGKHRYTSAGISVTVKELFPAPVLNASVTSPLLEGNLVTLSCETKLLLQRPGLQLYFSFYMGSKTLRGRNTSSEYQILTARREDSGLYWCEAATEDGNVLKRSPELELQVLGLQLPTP

[6] = molecular target: human FcγRIIIb-NA1 (human) (UniProt O75015); experiment: as above
human FcγRIIIb-NA1 (human), sequence (O75015 other isoform, or with tags, fused parts or gaps limits assumed): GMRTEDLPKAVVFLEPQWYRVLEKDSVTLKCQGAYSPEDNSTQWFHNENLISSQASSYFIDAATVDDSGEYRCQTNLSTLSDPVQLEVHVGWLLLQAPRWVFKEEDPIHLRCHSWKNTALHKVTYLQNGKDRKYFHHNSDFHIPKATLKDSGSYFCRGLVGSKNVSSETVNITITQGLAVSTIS

[7] = molecular target: human FcγRIIa-131R (human) (UniProt P12318); experiment: SPR (IBIS MX96), FcγR captured on sensor, full-length IgG1 titrated, pH 7.4, equilibrium 1:1 fit
[8] = molecular target: human FcγRIIa-131H (human) (UniProt P12318); experiment: as above
[9] = molecular target: human FcγRIIb (human) (UniProt P31994); experiment: as above
[10] = molecular target: human FcγRIa (human) (UniProt P12314); experiment: as above
[11] = molecular target: human FcγRIIIb-NA1 (human) (UniProt O75015); experiment: as above
[12] = molecular target: human FcγRIIIb-NA2 (human) (UniProt O75015); experiment: SPR (IBIS MX96), FcγR captured on sensor, full-length IgG1 titrated, pH 6.0, equilibrium 1:1 fit
human FcγRIIIb-NA2 (human), sequence (O75015 17-200 N65S limits assumed): as the sequence (O75015 other isoform, or with tags, fused parts or gaps limits assumed) above, with R20S, N49S, D66N, V90I counted along it

[13] = molecular target: human FcγRIIIa-158F (human) (UniProt P08637); experiment: as above
human FcγRIIIa-158F (human), sequence (P08637 17-208 limits assumed): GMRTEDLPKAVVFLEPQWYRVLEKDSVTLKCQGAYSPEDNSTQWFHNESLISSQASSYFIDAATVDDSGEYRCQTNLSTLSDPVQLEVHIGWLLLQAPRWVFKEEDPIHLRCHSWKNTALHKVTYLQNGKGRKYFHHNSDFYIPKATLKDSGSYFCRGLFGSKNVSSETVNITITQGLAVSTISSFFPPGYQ

[14] = molecular target: human FcγRIIIb-NA2 (human) (UniProt O75015); experiment: SPR (IBIS MX96), FcγR captured on sensor, full-length IgG1 titrated, pH 7.4, equilibrium 1:1 fit
[15] = molecular target: human FcγRIIIa-158F (human) (UniProt P08637); experiment: as above
[16] = molecular target: human FcγRIIIa-158V (human) (UniProt P08637); experiment: as above

human FcγRIIa-131H (human), sequence (P12318 34-218 limits assumed): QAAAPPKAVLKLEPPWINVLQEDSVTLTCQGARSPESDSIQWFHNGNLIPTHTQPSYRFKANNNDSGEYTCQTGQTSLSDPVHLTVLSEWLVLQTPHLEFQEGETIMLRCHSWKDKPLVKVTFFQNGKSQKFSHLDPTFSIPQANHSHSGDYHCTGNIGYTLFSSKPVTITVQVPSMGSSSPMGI
human FcγRIIIa-158V (human), sequence (P08637 17-208 F176V limits assumed): as the sequence (P08637 17-208 limits assumed) above, with F160V counted along it
human FcγRIIa-131R (human), sequence (P12318 34-218 H167R limits assumed): as the sequence (P12318 34-218 limits assumed) above, with H134R counted along it

| Substance | Kd [1] | Kd [2] | Kd [3] | Kd [4] | Kd [5] | Kd [6] | Kd [7] | Kd [8] | Kd [9] | Kd [10] | Kd [11] | Kd [12] | Kd [13] | Kd [14] | Kd [15] | Kd [16] |
| --- | --- | --- | --- | --- | --- | --- | --- | --- | --- | --- | --- | --- | --- | --- | --- | --- |
| IgG1-G236A (antibody) | 358 nM | 141 nM | 491 nM | > 2000 nM | 63.3 nM | > 2000 nM | 241 nM | 126 nM | > 2000 nM | 13.2 nM | > 2000 nM | – | – | – | – | – |
| IgG1-WT (antibody) | 920 nM | 455 nM | 337 nM | > 2000 nM | 27 nM | > 2000 nM | 953 nM | 668 nM | > 2000 nM | 7.1 nM | > 2000 nM | > 2000 nM | 894 nM | > 2000 nM | > 2000 nM | 382 nM |
| IgG1-WT-afuc (antibody) | 1990 nM | 1020 nM | 17.8 nM | > 2000 nM | 33.3 nM | > 2000 nM | 1010 nM | 1000 nM | > 2000 nM | 32.9 nM | 617 nM | 625 nM | 102 nM | 552 nM | 80.7 nM | 16.6 nM |
| IgG1-ΔG236 (antibody) | – | – | – | – | > 2000 nM | – | – | – | – | > 2000 nM | – | – | – | – | – | – |
